Test results as given in US11370837 (dated 2022).

T1: human TIGIT-Fc (human, UniProt Q495A1)
T1 chain: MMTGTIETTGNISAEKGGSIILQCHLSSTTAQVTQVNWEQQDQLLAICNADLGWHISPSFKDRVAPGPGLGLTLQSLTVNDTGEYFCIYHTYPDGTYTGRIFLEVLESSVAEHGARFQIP


Molecular target: T1, human TIGIT-Fc
Assay: BLI

Row | Kd | Binder
1 | 0.436 nM | ADI-30286 Fab (antibody, V domains shown) VH: EVQLLESGGGLVQPGGSLRLSCAASGFTFGPYGMSWVRQAPGKGLEWVSAISGSGASTWYADSVKGRFTISRDNSKNTLYLQMNSLRAEDTAVYYCAKDPGTHYSGYYYIWRYWGQGTLVTVSS VL: EIVMTQSPATLSVSPGERATLSCRASQSVSSNLAWYQQKPGQAPRLLIYSASTRATGIPARFSGSGSGTEFTLTISSLQSEDFAVYYCQQYVPHPPFTFGGGTKVEIK
2 | 6.48 nM | ADI-27291 Fab (antibody, V domains shown) VH: not shown VL: EIVMTQSPATLSVSPGERATLSCRASQSVSSNLAWYQQKPGQAPRLLIYSASTRATGIPARFSGSGSGTEFTLTISSLQSEDFAVYYCQQYVPHPPFTFGGGTKVEIK
3 | 3.49 nM | ADI-30293 Fab (antibody, V domains shown) VH: EVQLVESGGGLVQPGGSLRLSCAASGFTFSSYSMNWVRQAPGKGLEWVSYISSSGTINYADSVKGRFTISRDNAKNSLYLQMNSLRAEDTAVYYCARHRIADSPSRAFDIWGQGTMVTVSS VL: not shown
4 | 9.47 nM | ADI-27243 Fab (antibody, V domains shown) VH: QLQLQESGPGLVKPSETLSLTCTVSGGSISSSRYYWGWIRQPPGKGLEWIGSIYYSGSTYYNPSLKSRVTISVDTSKNQFSLKLSSVTAADTAVYYCARDGLYHTPEYFQHWGQGTLVTVSS VL: EIVLTQSPATLSLSPGERATLSCRASQSVSSYLAWYQQKPGQAPRLLIYDASNRATGIPARFSGSGSGTDFTLTISSLEPEDFAVYYCQQRFAFPYTFGGGTKVEIK
5 | 0.566 nM | ADI-30336 Fab (antibody, V domains shown) VH: QLQLQESGPGLVKPSETLSLTCTVSGGSISSSRYYWGWIRQPPGKGLEWIGSIYYSGSTYYNPSLKSRVTISVDTSKNQFSLKLSSVTAADTAVYYCARDGLYHTPEYFQHWGQGTLVTVSS VL: EIVLTQSPATLSLSPGERATLSCRASQSVSSYLAWYQQKPGQAPRLLIYDASNRATGIPARFSGSGSGTDFTLTISSLEPEDFAVYYCQQRFAHPYTFGGGTKVEIK
6 | 10.9 nM | ADI-27278 Fab (antibody, V domains shown) VH: EVQLVESGGGLVQPGGSLRLSCAASGFTFSSYSMNWVRQAPGKGLEWVSYISGSSSTIYYADSVKGRFTISRDNAKNSLYLQMNSLRAEDTAVYYCARHRIADSPSRAFDIWGQGTMVTVSS VL: not shown
7 | 0.571 nM | ADI-30268 Fab (antibody, V domains shown) VH: QVQLVQSGAEVKKPGASVKVSCKASGYTFGSYYMGWVRQAPGQGLEWMGIIDPSGGRTSYARKFQGRVTMTRDTSTSTVYMELSSLRSEDTAVYYCARARTPSSWPYGMDVWGQGTTVTVSS VL: DIQMTQSPSSLSASVGDRVTITCRASQSINSYLNWYQQKPGKAPKLLIYAASSLQSGVPSRFSGSGSGTDFTLTISSLQPEDFATYYCQQSLLTPFTFGGGTKVEIK
8 | 1.19 nM | ADI-30272 Fab (antibody, V domains shown) VH: QVQLVQSGAEVKKPGASVKVSCKASGYTFTEYYMHWVRQAPGQGLEWMGIISPSAGSTSYAQKFQGRVTMTRDTSTSTVYMELSSLRSEDTAVYYCARDHDIAAAGRLADYWGQGTLVTVSS VL: DIQMTQSPSSVSASVGDRVTITCRASQGISSWLAWYQQKPGKAPKLLISAASSLQSGVPSRFSGSGSGTDFTLTISSLQPEDFATYYCQQAVILPITFGGGTKVEIK
9 | 0.243 nM | ADI-30278 Fab (antibody, V domains shown) VH: QVQLVQSGAEVKKPGASVKVSCKASGYTFTEYYMHWVRQAPGQGLEWMGIISPSAGSTKYAQKFQGRVTMTRDTSTSTVYMELSSLRSEDTAVYYCARDHDIRLAGRLADYWGQGTLVTVSS VL: DIQMTQSPSSVSASVGDRVTITCRASQGISSWLAWYQQKPGKAPKLLISAASSLQSGVPSRFSGSGSGTDFTLTISSLQPEDFATYYCQQAVILPITFGGGTKVEIK
10 | 8.01 nM | ADI-27301 Fab (antibody, V domains shown) VH: QLQLQESGPGLVKPSETLSLTCTVSGGSISSSSYYWGWIRQPPGKGLEWIGSIYYSGSTYYNPSLKSRVTISVDTSKNQFSLKLSSVTAADTAVYYCAREAGRGTTGLLFDYWGQGTLVTVSS VL: DIQMTQSPSTLSASVGDRVTITCRASQSISSWLAWYQQKPGKAPKLLIYKASSLESGVPSRFSGSGSGTEFTLTISSLQPDDFATYYCQQYGILPRTFGGGTKVEIK
